Results reported in paper PMC8777244.

Key:
[1] = molecular target: MBP-fused human Nox5β dehydrogenase domain residues 528-719 (human) (UniProt Q96PH1); experiment: ITC
[2] = molecular target: MBP-fused human Nox5β dehydrogenase domain residues 584-719 (human) (UniProt Q96PH1); experiment: ITC
[3] = molecular target: MBP-fused human Nox5β dehydrogenase domain residues 605-719 (human) (UniProt Q96PH1); experiment: ITC
[4] = molecular target: MBP-fused human Nox5β dehydrogenase domain residues 665-719 (human) (UniProt Q96PH1); experiment: ITC
[5] = molecular target: human Nox5β CaM-binding domain (CMBD) peptide, residues 671-689 (human); experiment: ITC
[6] = molecular target: human Nox5β CaM-binding domain (CMBD) peptide, residues 671-689 (human); experiment: fluorescence polarisation
[7] = molecular target: N-terminal Dansyl-labeled human Nox5β CMBD peptide (human); experiment: other fluorescence titration
[8] = molecular target: human Nox5β CaM-binding domain (CMBD) peptide, residues 671-689 (human); experiment: other fluorescence titration

Chain of MBP-fused human Nox5β dehydrogenase domain residues 584-719 (human) (Q96PH1 630-765): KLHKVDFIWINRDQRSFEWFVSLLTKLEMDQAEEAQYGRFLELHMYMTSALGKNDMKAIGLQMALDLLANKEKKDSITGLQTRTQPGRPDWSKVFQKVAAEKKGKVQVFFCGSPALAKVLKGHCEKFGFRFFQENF
Chain of MBP-fused human Nox5β dehydrogenase domain residues 665-719 (human) (Q96PH1 711-765): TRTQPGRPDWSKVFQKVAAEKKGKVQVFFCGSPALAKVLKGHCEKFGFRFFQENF
Chain of MBP-fused human Nox5β dehydrogenase domain residues 528-719 (human) (Q96PH1 574-765): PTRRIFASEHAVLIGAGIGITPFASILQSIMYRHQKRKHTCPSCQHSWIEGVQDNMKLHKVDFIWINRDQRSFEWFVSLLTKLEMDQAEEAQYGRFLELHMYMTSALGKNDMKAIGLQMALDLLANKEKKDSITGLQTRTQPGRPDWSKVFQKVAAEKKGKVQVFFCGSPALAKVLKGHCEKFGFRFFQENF
Chain of MBP-fused human Nox5β dehydrogenase domain residues 605-719 (human) (Q96PH1 651-765): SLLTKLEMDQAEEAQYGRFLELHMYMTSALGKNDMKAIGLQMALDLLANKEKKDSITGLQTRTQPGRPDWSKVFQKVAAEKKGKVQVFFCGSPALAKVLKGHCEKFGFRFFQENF

Substance: recombinant 6xHis-tagged calmodulin (from UniProt P0DP23 1-149) (natural protein)
- dH [1]: -19 kcal/mol
- stoichiometry N ([peptide]/Protein]) [1]: 1.18
- dH [2]: -16.8 kcal/mol
- stoichiometry N ([peptide]/Protein]) [2]: 1.04
- dH [3]: -14.8 kcal/mol
- stoichiometry N ([peptide]/Protein]) [3]: 1.15
- dH [4]: -8.21 kcal/mol
- stoichiometry N ([peptide]/Protein]) [4]: 1.15
- dH (per mole protein) [5]: -7.85 kcal/mol
- stoichiometry N [5]: 0.521
- stoichiometry N ([peptide]/Protein]) [5]: 1.79
- stoichiometry N ([peptide]/Protein]) [6]: 1.91
- stoichiometry N ([peptide]/Protein]) [7]: 2.11
- stoichiometry N ([peptide]/Protein]) [8]: 2.1
